Laboratory results taken from US20180326084A1 (Genmab, published 2018).
Positions count from the first letter of the chain named. Like-named read-outs stand apart in the source and are kept apart here.

Assays:
human AXL (full length) [1] = target: T1, human AXL (full length) (human, UniProt P30530 26-894); experiment: flow cytometry, HEK293T cells transiently transfected with human AXL
T1 construct: also called TH1021-AXL; TH1021-hAXL

human AXL (full length) [2] = target: T1, human AXL (full length); experiment: flow cytometry, A431 cells pre-incubated with 10 µg/mL Gas6 (competitor)
human AXL (full length) [3] = target: T1, human AXL (full length); experiment: flow cytometry, A431 cells, no Gas6
AXLECDHis [4] = target: T2, AXLECDHis (human, UniProt P30530 26-447); experiment: BLI (Octet), IgG on anti-human Fc sensor, AXLECDHis analyte
T2 construct: theoretical mass 46 kDa used; also called extracellular domain (ECD) of human AXL (aa 1-447) with a C-terminal His tag; soluble recombinant AXL extracellular domain

[5] = target: T3, Homo sapiens AXL-Mus musculus Ig1 domain (p33-AXL-mIg1) (human-mouse chimera, UniProt P30530 8-894); experiment: flow cytometry, 1 µg/mL antibody, transfected HEK293F cells
T3 construct: Expressed in HEK293F cells; also called hsAXL-mmIg1; hsAXL-mmIgl
T3 chain: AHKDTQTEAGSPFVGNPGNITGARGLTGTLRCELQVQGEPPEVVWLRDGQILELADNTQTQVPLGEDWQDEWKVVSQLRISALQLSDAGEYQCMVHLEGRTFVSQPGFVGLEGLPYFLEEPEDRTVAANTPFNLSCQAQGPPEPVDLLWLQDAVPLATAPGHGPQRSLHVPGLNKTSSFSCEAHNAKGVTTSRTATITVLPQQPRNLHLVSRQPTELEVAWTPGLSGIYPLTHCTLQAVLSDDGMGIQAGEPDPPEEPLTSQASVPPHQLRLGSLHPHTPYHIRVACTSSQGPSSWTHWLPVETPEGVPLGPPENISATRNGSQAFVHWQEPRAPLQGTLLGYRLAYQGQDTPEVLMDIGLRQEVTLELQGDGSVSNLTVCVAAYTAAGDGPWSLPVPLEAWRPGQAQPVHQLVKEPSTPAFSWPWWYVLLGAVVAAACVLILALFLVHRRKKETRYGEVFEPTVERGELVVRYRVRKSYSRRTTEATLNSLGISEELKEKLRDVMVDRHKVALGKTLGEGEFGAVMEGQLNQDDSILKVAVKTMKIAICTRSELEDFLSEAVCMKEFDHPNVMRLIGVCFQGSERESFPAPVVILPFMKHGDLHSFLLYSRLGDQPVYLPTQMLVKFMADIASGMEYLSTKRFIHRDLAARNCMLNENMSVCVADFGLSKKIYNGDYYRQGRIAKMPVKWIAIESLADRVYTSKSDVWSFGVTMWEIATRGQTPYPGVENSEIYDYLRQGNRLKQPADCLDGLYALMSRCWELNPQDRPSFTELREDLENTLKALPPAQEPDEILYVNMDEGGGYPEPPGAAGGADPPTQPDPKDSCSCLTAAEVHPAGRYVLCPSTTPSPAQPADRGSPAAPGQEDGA

[6] = target: T4, Homo sapiens AXL-Mus musculus FN2 domain (p33-AXL-mFN2) (human-mouse chimera, UniProt P30530 26-894); experiment: as above
T4 construct: Expressed in HEK293F cells; also called hsAXL-mmFN2; TH1021-mFN2
T4 chain: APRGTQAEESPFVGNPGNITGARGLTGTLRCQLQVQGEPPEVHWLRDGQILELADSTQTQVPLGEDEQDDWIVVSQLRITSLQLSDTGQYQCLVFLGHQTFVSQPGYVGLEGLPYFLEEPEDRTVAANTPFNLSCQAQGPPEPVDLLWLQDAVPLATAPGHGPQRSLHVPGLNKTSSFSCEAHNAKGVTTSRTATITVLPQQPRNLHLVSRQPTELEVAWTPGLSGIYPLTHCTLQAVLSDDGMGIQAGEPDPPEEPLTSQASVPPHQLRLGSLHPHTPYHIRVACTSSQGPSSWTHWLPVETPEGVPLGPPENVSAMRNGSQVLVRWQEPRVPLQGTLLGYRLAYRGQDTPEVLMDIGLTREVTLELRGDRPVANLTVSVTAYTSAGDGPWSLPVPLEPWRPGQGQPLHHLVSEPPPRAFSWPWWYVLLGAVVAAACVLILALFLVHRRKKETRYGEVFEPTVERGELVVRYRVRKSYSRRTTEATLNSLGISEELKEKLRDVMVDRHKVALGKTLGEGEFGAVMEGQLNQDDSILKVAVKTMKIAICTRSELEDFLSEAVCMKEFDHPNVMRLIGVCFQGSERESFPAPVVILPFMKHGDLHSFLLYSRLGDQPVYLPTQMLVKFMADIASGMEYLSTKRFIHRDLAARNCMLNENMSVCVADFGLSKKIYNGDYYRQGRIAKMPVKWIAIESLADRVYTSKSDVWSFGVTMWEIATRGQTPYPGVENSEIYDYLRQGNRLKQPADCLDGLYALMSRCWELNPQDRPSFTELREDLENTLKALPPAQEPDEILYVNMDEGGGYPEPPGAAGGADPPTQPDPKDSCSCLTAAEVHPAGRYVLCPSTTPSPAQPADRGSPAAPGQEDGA

[7] = target: T5, Homo sapiens AXL-Mus musculus FN1 domain (p33-AXL-mFN1) (human-mouse chimera, UniProt P30530 26-894); experiment: as above
T5 construct: Expressed in HEK293F cells; also called hsAXL-mmFN1; TH1021-mFN1
T5 chain: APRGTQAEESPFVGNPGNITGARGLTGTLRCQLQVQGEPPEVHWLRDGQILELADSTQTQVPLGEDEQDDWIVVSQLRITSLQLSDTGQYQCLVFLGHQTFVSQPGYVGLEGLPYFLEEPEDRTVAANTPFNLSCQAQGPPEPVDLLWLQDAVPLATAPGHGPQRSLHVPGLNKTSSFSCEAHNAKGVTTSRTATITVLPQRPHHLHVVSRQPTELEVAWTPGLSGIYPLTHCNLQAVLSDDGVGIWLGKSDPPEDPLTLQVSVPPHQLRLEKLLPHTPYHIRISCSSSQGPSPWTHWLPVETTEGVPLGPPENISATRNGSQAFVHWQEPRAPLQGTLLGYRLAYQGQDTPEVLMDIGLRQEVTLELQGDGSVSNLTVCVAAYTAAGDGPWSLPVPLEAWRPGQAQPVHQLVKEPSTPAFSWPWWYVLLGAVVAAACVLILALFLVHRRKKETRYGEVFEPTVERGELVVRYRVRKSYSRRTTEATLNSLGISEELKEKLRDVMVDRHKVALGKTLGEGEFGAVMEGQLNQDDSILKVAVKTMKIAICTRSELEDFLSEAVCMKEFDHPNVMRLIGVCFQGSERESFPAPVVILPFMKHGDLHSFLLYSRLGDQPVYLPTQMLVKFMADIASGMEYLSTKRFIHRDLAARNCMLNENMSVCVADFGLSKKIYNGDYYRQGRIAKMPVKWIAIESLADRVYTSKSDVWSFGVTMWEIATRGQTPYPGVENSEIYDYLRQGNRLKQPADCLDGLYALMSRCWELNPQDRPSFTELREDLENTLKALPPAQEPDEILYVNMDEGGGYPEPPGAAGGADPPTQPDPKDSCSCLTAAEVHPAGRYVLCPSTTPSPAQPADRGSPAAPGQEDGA

[8] = target: T6, human AXL with a cynomolgus monkey extracellular domain (ECD) (cynomolgus monkey (Macaca …, UniProt P30530 26-894)); experiment: flow cytometry, HEK293T cells with human AXL carrying cynomolgus ECD
T6 construct: Chimera on transfected HEK293T cells; also called cynomolgus AXL; cynomolgus AXL-ECD
T6 chain: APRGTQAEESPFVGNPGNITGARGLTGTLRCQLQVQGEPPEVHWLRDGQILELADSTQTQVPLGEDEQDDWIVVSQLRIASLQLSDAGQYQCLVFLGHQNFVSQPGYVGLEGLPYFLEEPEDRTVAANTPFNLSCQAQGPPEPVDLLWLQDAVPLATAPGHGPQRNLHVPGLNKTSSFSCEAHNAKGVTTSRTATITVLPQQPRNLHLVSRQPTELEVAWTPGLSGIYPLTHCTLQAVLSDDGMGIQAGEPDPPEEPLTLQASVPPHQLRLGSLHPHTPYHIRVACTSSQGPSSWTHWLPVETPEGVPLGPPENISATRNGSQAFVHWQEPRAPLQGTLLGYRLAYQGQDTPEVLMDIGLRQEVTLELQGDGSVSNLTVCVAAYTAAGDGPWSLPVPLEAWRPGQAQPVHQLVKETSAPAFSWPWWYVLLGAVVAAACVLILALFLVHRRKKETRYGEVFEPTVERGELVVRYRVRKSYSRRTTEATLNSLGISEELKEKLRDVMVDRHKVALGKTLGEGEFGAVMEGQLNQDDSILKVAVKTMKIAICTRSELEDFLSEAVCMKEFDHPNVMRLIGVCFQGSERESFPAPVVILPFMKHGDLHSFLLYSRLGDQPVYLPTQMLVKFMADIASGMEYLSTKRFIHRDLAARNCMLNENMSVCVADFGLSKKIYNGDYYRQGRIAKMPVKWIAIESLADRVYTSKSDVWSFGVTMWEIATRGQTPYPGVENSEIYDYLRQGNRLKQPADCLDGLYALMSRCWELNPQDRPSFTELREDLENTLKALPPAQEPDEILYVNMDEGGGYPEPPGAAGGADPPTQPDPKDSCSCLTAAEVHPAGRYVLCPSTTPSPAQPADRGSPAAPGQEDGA

AXLECDHis [9] = target: T2, AXLECDHis; experiment: BLI (Octet), IgG on anti-human Fc sensor, AXLECDHis analyte; remark: listed apart in the source
human AXL (full length) [10] = target: T1, human AXL (full length); experiment: flow cytometry, HEK293T cells with full-length human AXL

B1: IgG1-AXL-148-A-vcDuo3 (antibody, V domains shown)
VH: EVQLLESGGGLVQPGGSLRLSCAASGFTFSSYAMTWVRQAPGKGLEWVSAISISGGSTFYADSVKGRFTISRDNSKNTLYLQMNSLRAEDTAVYYCRGYSGYVYDAFDFWGQGTMVTVSS
VL: DIQMTQSPSSLSASVGDRVTITCRASQGISNWLAWYQQKPEKAPKSLIYAASSLQSGVPSRFSGSGSGTDFTLTISSLQPEDFATYYCQQYNSYPLTFGGGTKVEIK
modifications: drug-linker on lysine(s); chain and position not given
notes: also called IgG1-AXL-148-vcDuostatin3; IgG1-AXL-148-vcDuo3
binding result (human AXL (full length) [1]): binds

B2: IgG1-AXL-511 (antibody, V domains shown)
VH: EVQLLESGGGLVQPGGSLRLSCAASGFTFSSYAMNWVRQAPGKGLEWVSGISGSGGHTYHADSVKGRFTISRDNSKNTLYLQMNSLRAEDTAVYYCAKDRYDILTGYYNLLDYWGQGTLVTVSS
VL: B1 VL with N31S, K42E, T102A
notes: also called clone 511
EC50 (human AXL (full length) [2]): 0.3 µg/mL | maximal binding in presence of Gas6 (% of binding in absence of Gas6) (human AXL (full length) [2]): 93% | EC50 (human AXL (full length) [3]): 0.12 µg/mL | Kd (AXLECDHis [4]): 23 nM | koff (AXLECDHis [4]): 0.0039 s⁻¹ | kon (AXLECDHis [4]): 170000 M⁻¹ s⁻¹

B3: IgG1-AXL-171 (antibody, V domains shown)
VH: EVQLLESGGGLVQPGGSLRLSCAASGFTFSSYAMSWVRQAPGKGLEWVSDISVSGGSTYYADSVKGRFTISRDNSKNTLYLQMNSLRAEDTAVYYCAKEGYIWFGESLSYAFDIWGQGTMVTVSS
VL: not shown
binding result [5]: binds | binding result [6]: binds | binding result [7]: binds

B4: IgG1-AXL-183-N52Q (antibody, V domains shown)
VH: QVQLQQWGAGLLKPSETLSLTCAVYGGSFSGYYWSWIRQPPGKGLEWIGEIQQSGSTNYNPSLKSRVTISVDTSKNQFSLKLSSVTAADTSVYYCASGNWDHFFDYWGQGTLVTVSS
VL: DIQMTQSPSSVSASVGDRVTITCRASQGISSWLAWYQHKPGKAPKLLIYATSSLQSGVTSRFSGSGSGTDFTLTISSLQPEDFATYYCQQAKSFPWTFGQGTKVEIK
notes: Expressed as human IgG1,κ; also called IgG1-AXL-183-N520
EC50 [8]: 0.324 µg/mL | Kd (AXLECDHis [9]): 24 nM | koff (AXLECDHis [9]): 0.001 s⁻¹ | kon (AXLECDHis [9]): 42000 M⁻¹ s⁻¹ | fold change of dissociation rate against wild-type IgG1-AXL-183 (AXLECDHis [4]): ~2.5 fold | EC50 (human AXL (full length) [10]): 0.35 µg/mL

B5: IgG1-AXL-183-A-vcDuo3 (antibody, V domains shown)
VH: B4 VH with Q52N
VL: B4 VL
modifications: drug-linker on lysine(s); chain and position not given
notes: also called IgG1-AXL-183-vcDuostatin3; IgG1-AXL-183-vcDuo3
EC50 (read off the curve) (human AXL (full length) [1]): ~0.2 µg/mL
